For test [1], the target named is phosphorylated form of RNAP II in both wt MEFs and HeLa cells. The test is described as follows: FRET or BRET; FLIM-FRET on wt MEFs or HeLa cells transiently transfected with EGFP-SRSF2 (donor), fixed and immunostained for lamin A or RNA polymerase II pS5 (acceptor, secondary antibody Alexa Fluor 594); E ≥ 25% taken as interaction. (BRET reads energy transfer from a luciferase to a nearby fluorophore.)

The target of test [2] is β-catenin (mouse (endogenous in MEFs)) (UniProt Q02248). The test is described as follows: FRET or BRET; FLIM-FRET on fixed, immunostained mitotic cells with normal A-type lamins (lmna wt MEFs); SC-35 donor (Cy3), β-catenin acceptor (Cy5); E ≥ 25% taken as interaction.
Chain of β-catenin (mouse (endogenous in MEFs)) (Q02248 whole entry): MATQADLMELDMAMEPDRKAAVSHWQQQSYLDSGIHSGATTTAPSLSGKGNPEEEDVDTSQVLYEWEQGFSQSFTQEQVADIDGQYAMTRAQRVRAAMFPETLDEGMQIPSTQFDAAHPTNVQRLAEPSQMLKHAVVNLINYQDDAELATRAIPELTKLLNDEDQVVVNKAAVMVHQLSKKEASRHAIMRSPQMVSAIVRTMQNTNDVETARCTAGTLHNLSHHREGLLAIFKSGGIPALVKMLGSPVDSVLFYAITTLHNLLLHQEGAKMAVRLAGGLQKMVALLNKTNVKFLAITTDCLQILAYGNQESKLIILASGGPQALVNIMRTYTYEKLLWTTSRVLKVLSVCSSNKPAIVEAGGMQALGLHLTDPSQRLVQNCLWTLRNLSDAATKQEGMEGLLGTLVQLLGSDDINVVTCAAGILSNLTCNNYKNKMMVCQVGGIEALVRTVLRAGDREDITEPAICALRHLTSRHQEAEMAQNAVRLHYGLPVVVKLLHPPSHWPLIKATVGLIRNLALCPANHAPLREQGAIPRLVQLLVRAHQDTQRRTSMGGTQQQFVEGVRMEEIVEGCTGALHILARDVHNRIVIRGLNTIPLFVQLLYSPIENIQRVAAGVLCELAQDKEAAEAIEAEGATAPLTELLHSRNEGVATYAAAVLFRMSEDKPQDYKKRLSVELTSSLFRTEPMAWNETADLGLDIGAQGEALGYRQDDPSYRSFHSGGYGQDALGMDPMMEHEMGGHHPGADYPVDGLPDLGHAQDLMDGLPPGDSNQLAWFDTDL
Test [3] addresses phosphorylated form of RNA polymerase II (CTD repeat YSPTSPS, phospho S5), in mouse embryonic fibroblasts (mouse (endogenous in MEFs)) (UniProt P08775). The test is described as follows: FRET or BRET; FLIM-FRET on fixed, immunostained interphase lmna wt cells (MEFs); SC-35 donor (secondary antibody Cy3), RNA polymerase II pS5 acceptor (secondary antibody Cy5); E ≥ 25% taken as interaction.

Chain of EGFP-tagged SRSF2 (Q01130 whole entry): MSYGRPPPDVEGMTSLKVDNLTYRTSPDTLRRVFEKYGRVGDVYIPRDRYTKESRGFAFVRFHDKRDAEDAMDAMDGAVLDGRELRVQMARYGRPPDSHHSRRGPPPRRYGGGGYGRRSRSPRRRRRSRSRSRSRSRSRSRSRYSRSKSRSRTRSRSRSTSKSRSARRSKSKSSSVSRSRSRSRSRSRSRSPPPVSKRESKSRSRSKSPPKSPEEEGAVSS

Turning to “EGFP-tagged SRSF2 (from UniProt Q01130 1-221) (natural protein)”, the FRET efficiency in test [1] fell in the range of 27 to 29%.
“SC-35 protein (serine/arginine-rich splicing factor 2, encoded by the SRSF2 gene) (from UniProt Q62093 1-221) (natural protein)”: the FRET efficiency was 36.5% in test [2] and 75% in test [3].

These data come from PMC7912905.
